Literature values as cited in patent publication US20140378381A1 (LATITUDE PHARMACEUTICALS, INC., priority 2011, published 2014).

Tests used:
[1] = after injection

In the case of glucagon, the onset of action [1] is given as 5 to 20 min, the “glucagon decomposed into degradation products” value (acidic solution (pH 2-4), 24 hours at 37° C.) is given as 5-70% and the “aggregation in aqueous solution” value (aqueous solutions of pH 3 or less) is given as “aggregate to form a gel within an hour”. The solubility in water (physiological pH (pH 4-8)) was “insoluble”.
